Biological target: the molecule itself
Experiment: crystal structure; sitting drop, 20 °C, 100 mM phosphate-citrate pH 4.8, 32% ethanol, 5% PEG 1000; four PhoDHS molecules in the asymmetric unit, dimer of dimers with point group D2

B1: deoxyhypusine synthase from Pyrococcus horikoshii OT3 (enzyme, UniProt O50105 1-342, looked up)
chain: MKAKDIVLKKSEKIEGVEVKGPWLDDAQSLEEVVSYYYRIGFQATHLGRAIEIWRKVEEKRERGEEIRVFLGYTSNIISSGLREIIAWLVKEKKVDVIVTTAGGVEEDFIKSLKPFILGDWEVDDAELRKKGVNRIGNIFVPNDRYIEFEKYMIPFFERVLKIEEKLSRPLTASEFIYEMGRYMDEKLGKEKEKSVIYWAYKNNIPIFCPAITDGSIGDMLYFFKEERRDSRLIIDIANDIVKLNNLAITAKETASIILGGSLPKHAIINANLFRGGTDYAIYISTAVPWDGSLSGAPPREGVSWGKIKAKADYVEVWGDATLIFPILVWMVMKARGQGYAQ
notes: deoxyhypusine synthase (DHS), Pyrococcus horikoshii OT3, UniProtKB O50105, residues 1-342 (342 residues in all, 39 kDa); Homotetramer (dimer of dimers, D2); The His6 tag was removed with TEV protease at the site Glu-Asn-Leu-Tyr-Phe-Gln-Gly, so a residue of the site may remain at the N-terminus; also called PhoDHS; DHS; not shown: His6, N-terminal, cleaved
stoichiometry N: 4

From publication PMC7432094, “Flexible NAD^+ Binding in Deoxyhypusine Synthase Reflects the Dynamic Hypusine Modification of Translation Factor IF5A” (International Journal of Molecular Sciences, 2020)
